Data set [1] concerns the target T1, CsrA-His6 (Escherichia coli, UniProt P69913 1-61). In words: EMSA; EMSA: 0.1 nM RNA, 10 mM MgCl2, 100 mM KCl, 32.5 ng yeast RNA, 20 mM DTT, 7.5% glycerol, 4 U SUPERasin, 30 min 37 C (pH not given); footprint: 2 nM RNA, 10 mM Tris-HCl pH 7.5, 10 mM MgCl2, 100 mM KCl, yeast RNA, acetylated BSA, 37 C. As to conditions: protein: recombinant; tags: His6 (C-terminal by name); chain copies: 2; label: 5'-32P.

Data set [2] addresses T1, CsrA-His6. Kind of data set: EMSA; side-by-side with A(-15)G; differs from 95 nM in Fig. 6, RNA may differ; EMSA: 0.1 nM RNA, 10 mM MgCl2, 100 mM KCl, 32.5 ng yeast RNA, 20 mM DTT, 7.5% glycerol, 4 U SUPERasin, 30 min 37 C (pH not given); footprint: 2 nM RNA, 10 mM Tris-HCl pH 7.5, 10 mM MgCl2, 100 mM KCl, yeast RNA, acetylated BSA, 37 C. As to conditions: protein: recombinant; tags: His6 (C-terminal by name); chain copies: 2; label: 5'-32P. (Mobility shift assays separate free from complexed probe on a gel.)

Data set [3] deals with T1, CsrA-His6. In words: EMSA; no effect on affinity vs WT; EMSA: 0.1 nM RNA, 10 mM MgCl2, 100 mM KCl, 32.5 ng yeast RNA, 20 mM DTT, 7.5% glycerol, 4 U SUPERasin, 30 min 37 C (pH not given); footprint: 2 nM RNA, 10 mM Tris-HCl pH 7.5, 10 mM MgCl2, 100 mM KCl, yeast RNA, acetylated BSA, 37 C. As to conditions: protein: recombinant; tags: His6 (C-terminal by name); chain copies: 2; label: 5'-32P.

In data set [4] the target is T1, CsrA-His6. Kind of data set: EMSA; Hill coefficient 4.5; EMSA: 0.1 nM RNA, 10 mM MgCl2, 100 mM KCl, 32.5 ng yeast RNA, 20 mM DTT, 7.5% glycerol, 4 U SUPERasin, 30 min 37 C (pH not given); footprint: 2 nM RNA, 10 mM Tris-HCl pH 7.5, 10 mM MgCl2, 100 mM KCl, yeast RNA, acetylated BSA, 37 C. As to conditions: protein: recombinant; tags: His6 (C-terminal by name); chain copies: 2; label: 5'-32P; hairpin (mFold).

Substitutions are numbered along the chain they refer to.

T1 sequence (P69913 whole entry): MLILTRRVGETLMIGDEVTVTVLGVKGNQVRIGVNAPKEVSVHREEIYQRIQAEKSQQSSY

B1: yqjC leader WT (ssRNA)
RNA: GGGCGGUGGUUAACACUACCGCUUCGUUGUCUGGACAAUCGUUCCUUUGUAAUAGGUCCGAAUCACAAUGGAAGGUUCAAGAAUGAAAUACCGCAUCGCUUUAGCUGUU
In general, Kd refers to the free concentration of one partner at which half of the binding sites on the other are occupied at equilibrium, for simple one-to-one binding. As for B1, the Kd in data set [1] worked out at 95 ± 7 nM; in data set [2] it was 15 ± 9 nM.

B2: yqjC leader GGA1 mutant (GGA to AAA) (ssRNA)
RNA: B1 RNA with G33A, G34A
Consider B2, for which the binding result in data set [3] is “binds”.

Consider GCGCAGGAAGAGCUGAAAAAGCUGGAAGCGC (structured_RNA) [yqjD BS2-BS3 fragment WT], for which the Kd in data set [4] came out at 89 ± 6 nM.

On to GGGUUUUACGCAAAUCCAGAACGAGAAUGUCUAAUCAG (ssRNA) [elaB leader GGA to CCA], for which the binding result in data set [1] is listed as “no binding”.

For GGGUUUUACGCAAAUGGAGAACGAGAAUGUCUAAUCAG (ssRNA) [elaB leader WT], the Kd in data set [1] is 20 ± 8 nM.

For the origin of these results see paper PMC10746276, “CsrA coordinates the expression of ribosome hibernation and anti-σ factor proteins”.
